Experimental data from US20230114801A1 (SYSTIMMUNE, published 2023).
Blank lines part the entries; values can stand above or below the binder they belong to.

Tests used:
Assay in all cases: BLI (Octet), binder on AHC sensor, 100 nM human antigen, 1:1 fit
human CD3 = molecular target: T1, human CD3 (human, UniProt P07766 23-126; P04234 22-105)
T1 construct: also called His-tagged human CD3; human CD3 (Acro CDD-H52W1)

human HER3 = molecular target: T2, human HER3 (human, UniProt P21860 20-643)
T2 construct: Soluble antigen in Octet; bought; also called human HER3 (Acro ER3-H5223)

human EGFR = molecular target: T3, human EGFR (human, UniProt P00533 25-645, limits assumed)
T3 construct: Soluble antigen in Octet; construct not described

Kd (human CD3): 44.4 nM
Kd (human HER3): 139 nM
B1: SI-75X5 (bispecific antibody, human IgG1, kappa, L234A L235A)
chain 1: QVQLQESGGRLVQPGEPLSLTCKTSGIDLSSNAIGWVRQAPGKGLEWIGVIFGSGNTYYASWAKGRFTISRSTSTVYLKMNSLRSEDTAIYYCARGGYSSDIWGQGTLVTVSSASTKGPSVFPLAPSSKSTSGGTAALGCLVKDYFPEPVTVSWNSGALTSGVHTFPAVLQSSGLYSLSSVVTVPSSSLGTQTYICNVNHKPSNTKVDKRVEPKSCDKTHTCPPCPAPEAAGGPSVFLFPPKPKDTLMISRTPEVTCVVVDVSHEDPEVKFNWYVDGVEVHNAKTKPREEQYNSTYRVVSVLTVLHQDWLNGKEYKCAVSNKALPAPIEKTISKAKGQPREPQVYTLPPSRDELTKNQVSLSCAVKGFYPSDIAVEWESNGQPENNYKTTPPVLDSDGSFFLVSKLTVDKSRWQQGNVFSCSVMHEALHNHYTQKSLSLSPG
chain 2: QSALTQPASVSGSPGQSITISCTGTSSDVGGYNFVSWYQQHPGKAPKLMIYDVSDRPSGVSDRFSGSKSGNTASLIISGLQADDEADYYCSSYGSSSTHVIFGGGTKVTVLGGGGSGGGGSGGGGSGGGGSQVQLQESGGGLVKPGGSLSLSCAASGFTFSSYWMSWVRQAPGKGLEWVANINRDGSASYYVDSVKGRFTISRDDAKNSLYLQMNSLRAEDTAVYYCARDRGVGYFDLWGRGTLVTVSSGGGGSGGGGSDPQLTQSPSSLSATVGQRVTINCQSSQSVAKNNNLAWFQQKPGKPPKLLIYSASTLAAGVPSRFSGSGSGTQFTLTITRVQSEDFATYYCSARDSGNIQSFGGGTRVEIKRTVAAPSVFIFPPSDEQLKSGTASVVCLLNNFYPREAKVQWKVDNALQSGNSQESVTEQDSKDSTYSLSSTLTLSKADYEKHKVYACEVTHQGLSSPVTKSFNRGECGGDKTHTCPPCPAPEAAGGPSVFLFPPKPKDTLMISRTPEVTCVVVDVSHEDPEVKFNWYVDGVEVHNAKTKPREEQYNSTYRVVSVLTVLHQDWLNGKEYKCAVSNKALPAPIEKTISKAKGQPREPQVYTLPPSRDELTKNQVSLWCLVKGFYPSDIAVEWESNGQPENNYKTTPPVLDSDGSFFLYSKLTVDKSRWQQGNVFSCSVMHEALHNRFTQKSLSLSPG
notes: bi-miniGNC, IgG1; D2 αHER3, D3 αCD3* (Fab); Chain B carries H435R/Y436F (Fc) and R19S (VH of the αHER3 scFv)

Kd (human CD3): 18.2 nM
Kd (human EGFR): 8.47 nM
Kd (human HER3): 146 nM
B2: SI-75X3 (other)
chain 1: EIVLTQSPSTLSVSPGERATFSCRASQSIGTNIHWYQQKPGKPPRLLIKYASESISGIPDRFSGSGSGTEFTLTISSVQSEDFAVYYCQQNNNWPTTFGPGTKLTVLGGGGSGGGGSGGGGSGGGGSQVQLQQSGPGLVKPSETLSITCTVSGFSLTNYGVHWIRQAPGKGLEWLGVIWSGGNTDYNTPFTSRFTITKDNSKNQVYFKLRSVRADDTAIYYCARALTYYDYEFAYWGQGTLVTVSSGGGGSGGGGSEVQLVESGGGLVQPGGSLRLSCAASGFTISTNAMSWVRQAPGKGLEWIGVITGRDITYYASWAKGRFTISRDNSKNTLYLQMNSLRAEDTAVYYCARDGGSSAITSNNIWGQGTLVTVSSASTKGPSVFPLAPSSKSTSGGTAALGCLVKDYFPEPVTVSWNSGALTSGVHTFPAVLQSSGLYSLSSVVTVPSSSLGTQTYICNVNHKPSNTKVDKRVEPKSCDKTHTCPPCPAPEAAGGPSVFLFPPKPKDTLMISRTPEVTCVVVDVSHEDPEVKFNWYVDGVEVHNAKTKPREEQYNSTYRVVSVLTVLHQDWLNGKEYKCAVSNKALPAPIEKTISKAKGQPREPQVYTLPPSRDELTKNQVSLSCAVKGFYPSDIAVEWESNGQPENNYKTTPPVLDSDGSFFLVSKLTVDKSRWQQGNVFSCSVMHEALHNHYTQKSLSLSPG
chain 2: QSALTQPASVSGSPGQSITISCTGTSSDVGGYNFVSWYQQHPGKAPKLMIYDVSDRPSGVSDRFSGSKSGNTASLIISGLQADDEADYYCSSYGSSSTHVIFGGGTKVTVLGGGGSGGGGSGGGGSGGGGSQVQLQESGGGLVKPGGSLSLSCAASGFTFSSYWMSWVRQAPGKGLEWVANINRDGSASYYVDSVKGRFTISRDDAKNSLYLQMNSLRAEDTAVYYCARDRGVGYFDLWGRGTLVTVSSGGGGSGGGGSDVVMTQSPSTLSASVGDRVTINCQASESISSWLAWYQQKPGKAPKLLIYEASKLASGVPSRFSGSGSGTEFTLTISSLQPDDFATYYCQGYFYFISRTYVNSFGGGTKVEIKRTVAAPSVFIFPPSDEQLKSGTASVVCLLNNFYPREAKVQWKVDNALQSGNSQESVTEQDSKDSTYSLSSTLTLSKADYEKHKVYACEVTHQGLSSPVTKSFNRGECGGDKTHTCPPCPAPEAAGGPSVFLFPPKPKDTLMISRTPEVTCVVVDVSHEDPEVKFNWYVDGVEVHNAKTKPREEQYNSTYRVVSVLTVLHQDWLNGKEYKCAVSNKALPAPIEKTISKAKGQPREPQVYTLPPSRDELTKNQVSLWCLVKGFYPSDIAVEWESNGQPENNYKTTPPVLDSDGSFFLYSKLTVDKSRWQQGNVFSCSVMHEALHNRFTQKSLSLSPG
notes: tri-miniGNC; D1 αEGFR, D2 αHER3, D3 αCD3 (Fab); also called tri-miniGNC (SI-75X3)

Kd (human CD3): 27.8 nM
Kd (human HER3): 162 nM
B3: SI-75X2 (bispecific antibody, human IgG1, kappa, L234A L235A)
chain 1: EVQLVESGGGLVQPGGSLRLSCAASGFTISTNAMSWVRQAPGKGLEWIGVITGRDITYYASWAKGRFTISRDNSKNTLYLQMNSLRAEDTAVYYCARDGGSSAITSNNIWGQGTLVTVSSASTKGPSVFPLAPSSKSTSGGTAALGCLVKDYFPEPVTVSWNSGALTSGVHTFPAVLQSSGLYSLSSVVTVPSSSLGTQTYICNVNHKPSNTKVDKRVEPKSCDKTHTCPPCPAPEAAGGPSVFLFPPKPKDTLMISRTPEVTCVVVDVSHEDPEVKFNWYVDGVEVHNAKTKPREEQYNSTYRVVSVLTVLHQDWLNGKEYKCAVSNKALPAPIEKTISKAKGQPREPQVYTLPPSRDELTKNQVSLSCAVKGFYPSDIAVEWESNGQPENNYKTTPPVLDSDGSFFLVSKLTVDKSRWQQGNVFSCSVMHEALHNHYTQKSLSLSPG
chain 2: B2 chain 2
notes: bi-miniGNC; D2 αHER3, D3 αCD3 (Fab); also called bi-miniGNC (SI-75X2)

Kd (human CD3): 24 nM
Kd (human EGFR): 8.11 nM
B4: SI-75X1 (bispecific antibody, human IgG1, kappa, L234A L235A)
chain 1: B2 chain 1
chain 2: DVVMTQSPSTLSASVGDRVTINCQASESISSWLAWYQQKPGKAPKLLIYEASKLASGVPSRFSGSGSGTEFTLTISSLQPDDFATYYCQGYFYFISRTYVNSFGGGTKVEIKRTVAAPSVFIFPPSDEQLKSGTASVVCLLNNFYPREAKVQWKVDNALQSGNSQESVTEQDSKDSTYSLSSTLTLSKADYEKHKVYACEVTHQGLSSPVTKSFNRGECGGDKTHTCPPCPAPEAAGGPSVFLFPPKPKDTLMISRTPEVTCVVVDVSHEDPEVKFNWYVDGVEVHNAKTKPREEQYNSTYRVVSVLTVLHQDWLNGKEYKCAVSNKALPAPIEKTISKAKGQPREPQVYTLPPSRDELTKNQVSLWCLVKGFYPSDIAVEWESNGQPENNYKTTPPVLDSDGSFFLYSKLTVDKSRWQQGNVFSCSVMHEALHNRFTQKSLSLSPG
notes: bi-miniGNC; D1 αEGFR, D3 αCD3 (Fab)
